# Results: article doi:10.1101/2022.10.27.514150
# Molecular target: Gluc1-E2F4 (human), Q16254
# Experiment: split reporter
# Settings: remark: other sources report otherwise
# Sequence of Gluc1-E2F4 (human), Q16254 (Q16254 whole entry): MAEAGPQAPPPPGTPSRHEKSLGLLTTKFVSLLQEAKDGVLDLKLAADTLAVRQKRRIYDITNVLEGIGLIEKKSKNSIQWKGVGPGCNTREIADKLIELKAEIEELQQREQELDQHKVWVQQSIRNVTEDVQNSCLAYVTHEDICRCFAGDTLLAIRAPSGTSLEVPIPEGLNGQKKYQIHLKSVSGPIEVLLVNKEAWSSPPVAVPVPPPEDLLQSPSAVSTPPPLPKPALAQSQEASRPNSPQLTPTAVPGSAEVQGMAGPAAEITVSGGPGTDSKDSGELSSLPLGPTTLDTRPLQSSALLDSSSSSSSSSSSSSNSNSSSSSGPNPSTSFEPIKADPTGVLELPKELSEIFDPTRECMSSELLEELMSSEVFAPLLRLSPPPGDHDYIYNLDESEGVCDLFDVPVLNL
binder,measurement,value
"Gluc2-p130, Q08999 1-1139 (natural protein) MPSGGDQSPPPPPPPPAAAASDEEEEDDGEAEDAAPPAESPTPQIQQRFDELCSRLNMDEAARAEAWDSYRSMSESYTLEGNDLHWLACALYVACRKSVPTVSKGTVEGNYVSLTRILKCSEQSLIEFFNKMKKWEDMANLPPHFRERTERLERNFTVSAVIFKKYEPIFQDIFKYPQEEQPRQQRGRKQRRQPCTVSEIFHFCWVLFIYAKGNFPMISDDLVNSYHLLLCALDLVYGNALQCSNRKELVNPNFKGLSEDFHAKDSKPSSDPPCIIEKLCSLHDGLVLEAKGIKEHFWKPYIRKLYEKKLLKGKEENLTGFLEPGNFGESFKAINKAYEEYVLSVGNLDERIFLGEDAEEEIGTLSRCLNAGSGTETAERVQMKNILQQHFDKSKALRISTPLTGVRYIKENSPCVTPVSTATHSLSRLHTMLTGLRNAPSEKLEQILRTCSRDPTQAIANRLKEMFEIYSQHFQPDEDFSNCAKEIASKHFRFAEMLYYKVLESVIEQEQKRLGDMDLSGILEQDAFHRSLLACCLEVVTFSYKPPGNFPFITEIFDVPLYHFYKVIEVFIRAEDGLCREVVKHLNQIEEQILDHLAWKPESPLWEKIRDNENRVPTCEEVMPPQNLERADEICIAGSPLTPRRVTEVRADTGGLGRSITSPTTLYDRYSSPPASTTRRRLFVENDSPSDGGTPGRMPPQPLVNAVPVQNVSGETVSVTPVPGQTLVTMATATVTANNGQTVTIPVQGIANENGGITFFPVQVNVGGQAQAVTGSIQPLSAQALAGSLSSQQVTGTTLQVPGQVAIQQISPGGQQQKQGQSVTSSSNRPRKTSSLSLFFRKVYHLAAVRLRDLCAKLDISDELRKKIWTCFEFSIIQCPELMMDRHLDQLLMCAIYVMAKVTKEDKSFQNIMRCYRTQPQARSQVYRSVLIKGKRKRRNSGSSDSRSHQNSPTELNKDRTSRDSSPVMRSSSTLPVPQPSSAPPTPTRLTGANSDMEEEERGDLIQFYNNIYIKQIKTFAMKYSQANMDAPPLSPYPFVRTGSPRRIQLSQNHPVYISPHKNETMLSPREKIFYYFSNSPSKRLREINSMIRTGETPTKKRGILLEDGSESPAKRICPENHSALLRRLQDVANDRGSH",normalized luminescence ratio (NLR),> 40
